# Measured values: the supplement of paper PMC9112550, “Optimization of the antimicrobial peptide Bac7 by deep mutational scanning” (BMC Biology, 2022)
# Tested on: Escherichia coli TOP10
# Test: shrunken log2 fold change of peptide-encoding DNA abundance (4.5 h post-induction vs induction); higher = less antimicrobial activity (less host growth inhibition)
# Settings: time post-induction: 4.5 h; library: site-saturation at positions 5, 18, 19, 20
# 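Note: peptides expressed intracellularly from a pBAD plasmid library in pooled LB shake-flask culture, induced with 0.3% L-arabinose, DNA abundance read by NGS, three biological replicates, DESeq2 with apeglm shrinkage.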
row,Sequence,shrunken log2 fold change
1,RRIRNRPPRLPRPRPRPTQQPRP,0.244
2,RRIRKRPPRLPRPRPRPPQSPRP,0.863
3,RRIRTRPPRLPRPRPRPWMKPRP,0.0159
4,RRIRNRPPRLPRPRPRPLLLPRP,-0.25
5,RRIRARPPRLPRPRPRPHMNPRP,-0.245
6,RRIRARPPRLPRPRPRPYCYPRP,-0.227
7,RRIRFRPPRLPRPRPRPFGDPRP,-0.19
8,RRIRMRPPRLPRPRPRPALGPRP,0.625
9,RRIRQRPPRLPRPRPRPTWVPRP,2.03
10,RRIRSRPPRLPRPRPRPDSMPRP,-0.339
11,RRIRDRPPRLPRPRPRPVDLPRP,0.0194
12,RRIRNRPPRLPRPRPRPSCNPRP,-0.485
13,RRIRQRPPRLPRPRPRPAGYPRP,-0.101
14,RRIRGRPPRLPRPRPRPSGMPRP,0.48
15,RRIRSRPPRLPRPRPRPMVQPRP,0.13
16,RRIRQRPPRLPRPRPRPNTYPRP,-1.07
17,RRIRHRPPRLPRPRPRPQQSPRP,-0.0132
18,RRIRVRPPRLPRPRPRPKIMPRP,-0.193
19,RRIRHRPPRLPRPRPRPYIIPRP,-0.855
20,RRIRTRPPRLPRPRPRPMAKPRP,0.0153
21,RRIRQRPPRLPRPRPRPLIEPRP,-0.042
22,RRIRNRPPRLPRPRPRPHTSPRP,-0.268
23,RRIRCRPPRLPRPRPRPKAVPRP,0.564
24,RRIRNRPPRLPRPRPRPRTLPRP,-0.0666
25,RRIRKRPPRLPRPRPRPVEKPRP,-0.0124

row,Sequence,shrunken log2 fold change
1,RRIRPRPPRLPRPRPRPEHQPRP,-0.0202
2,RRIRKRPPRLPRPRPRPHNQPRP,0.0277
3,RRIRMRPPRLPRPRPRPFFHPRP,-0.243
4,RRIRPRPPRLPRPRPRPMEQPRP,0.0098
5,RRIRTRPPRLPRPRPRPSHRPRP,-0.463
6,RRIRPRPPRLPRPRPRPLSQPRP,-0.185
7,RRIRYRPPRLPRPRPRPVIHPRP,-0.0643
8,RRIRPRPPRLPRPRPRPHDLPRP,0.0288
9,RRIRDRPPRLPRPRPRPYFRPRP,-0.318
10,RRIRNRPPRLPRPRPRPAQYPRP,0.103
11,RRIRSRPPRLPRPRPRPDLKPRP,-0.00372
12,RRIRMRPPRLPRPRPRPFHQPRP,-0.0752
13,RRIRLRPPRLPRPRPRPFCLPRP,-0.485
14,RRIRVRPPRLPRPRPRPVFFPRP,-0.0099
15,RRIRGRPPRLPRPRPRPFFGPRP,0.188
16,RRIRGRPPRLPRPRPRPHTIPRP,0.151
17,RRIRDRPPRLPRPRPRPSQWPRP,-0.119
18,RRIRGRPPRLPRPRPRPFDAPRP,-0.00556
19,RRIRYRPPRLPRPRPRPGSPPRP,-0.0883
20,RRIRIRPPRLPRPRPRPYIEPRP,-0.266
21,RRIRQRPPRLPRPRPRPLMEPRP,-0.17
22,RRIRNRPPRLPRPRPRPNWVPRP,0.0876
23,RRIRKRPPRLPRPRPRPYIMPRP,-0.153
24,RRIRSRPPRLPRPRPRPEFCPRP,0.132
25,RRIRYRPPRLPRPRPRPQDHPRP,0.0457

row,Sequence,shrunken log2 fold change
1,RRIRWRPPRLPRPRPRPNVTPRP,-0.22
2,RRIRDRPPRLPRPRPRPCLCPRP,0.0206
3,RRIRHRPPRLPRPRPRPFMGPRP,-0.103
4,RRIRIRPPRLPRPRPRPQIIPRP,-0.213
5,RRIRKRPPRLPRPRPRPKHHPRP,0.122
6,RRIRCRPPRLPRPRPRPISSPRP,-0.0694
7,RRIRQRPPRLPRPRPRPPCNPRP,-0.115
8,RRIRYRPPRLPRPRPRPFQEPRP,-0.152
9,RRIRKRPPRLPRPRPRPHPKPRP,0.386
10,RRIRPRPPRLPRPRPRPYDAPRP,-0.0642
11,RRIRLRPPRLPRPRPRPRLHPRP,-0.237
12,RRIRWRPPRLPRPRPRPLKFPRP,-0.121
13,RRIRQRPPRLPRPRPRPYAKPRP,-0.122
14,RRIRRRPPRLPRPRPRPTEFPRP,-0.191
15,RRIRLRPPRLPRPRPRPQIHPRP,-0.154
16,RRIRARPPRLPRPRPRPESTPRP,1.05
17,RRIRYRPPRLPRPRPRPEPMPRP,-0.0988
18,RRIRPRPPRLPRPRPRPCIIPRP,-0.438
19,RRIRSRPPRLPRPRPRPMANPRP,-0.397
20,RRIRHRPPRLPRPRPRPSTNPRP,-0.275
21,RRIRARPPRLPRPRPRPTVKPRP,0.143
22,RRIRRRPPRLPRPRPRPEQMPRP,0.19
23,RRIRNRPPRLPRPRPRPMPCPRP,0.05
24,RRIRYRPPRLPRPRPRPKFIPRP,-1.39
25,RRIRIRPPRLPRPRPRPRDLPRP,0.067
